From doi:10.1101/2021.07.20.453058 (bioRxiv, 2021)
Values belong to the molecule of their own block, whether it stands above or below them.

What was measured:
Experiment in all cases: native gel or EMSA
[1] = biological target: KaiA3-His6 (Synechocystis sp. PCC 6803)
[2] = biological target: KaiB3 (recombinant, GST-tag removed) (Synechocystis sp. PCC 6803)
[3] = biological target: Strep-KaiC3 (Synechocystis sp. PCC 6803)
[4] = biological target: the molecule itself

Molecule: Strep-KaiC3 (natural protein)
stoichiometry N [3]: 6

B1: Synechococcus KaiA (recombinant, GST-tag removed) (natural protein, Synechococcus elongatus PCC 7942, UniProt Q79PF6 1-284, looked up)
chain: MLSQIAICIWVESTAILQDCQRALSADRYQLQVCESGEMLLEYAQTHRDQIDCLILVAANPSFRAVVQQLCFEGVVVPAIVVGDRDSEDPDEPAKEQLYHSAELHLGIHQLEQLPYQVDAALAEFLRLAPVETMADHIMLMGANHDPELSSQQRDLAQRLQERLGYLGVYYKRDPDRFLRNLPAYESQKLHQAMQTSYREIVLSYFSPNSNLNQSIDNFVNMAFFADVPVTKVVEIHMELMDEFAKKLRVEGRSEDILLDYRLTLIDVIAHLCEMYRRSIPRET
stoichiometry N [4]: 2

Other lines, results leading:

stoichiometry N [1]: > 2
Molecule: KaiA3-His6 (natural protein)

stoichiometry N [2]: 4
Molecule: KaiB3 (recombinant, GST-tag removed) (natural protein)
